Reference: patent publication US8703915B2, “Mutant proteins and methods for producing them” (Heptares Therapeutics Limited, priority 2009, dated 2014)
Residue numbers refer to the chain shown, from its start. Names may count otherwise.

Assays:
[1] = target: T1, M4 muscarinic receptor (Homo sapiens, UniProt P08173, L71A); assay: Thermostability of M4 muscarinic receptor bound to antagonist NMS; assay type: physicochemical; details: antagonist NMS bound, versus parent M4
T1 construct: made in house; host or cells: HEK293T cells, transient
T1 sequence (P08173 1-479 L71A): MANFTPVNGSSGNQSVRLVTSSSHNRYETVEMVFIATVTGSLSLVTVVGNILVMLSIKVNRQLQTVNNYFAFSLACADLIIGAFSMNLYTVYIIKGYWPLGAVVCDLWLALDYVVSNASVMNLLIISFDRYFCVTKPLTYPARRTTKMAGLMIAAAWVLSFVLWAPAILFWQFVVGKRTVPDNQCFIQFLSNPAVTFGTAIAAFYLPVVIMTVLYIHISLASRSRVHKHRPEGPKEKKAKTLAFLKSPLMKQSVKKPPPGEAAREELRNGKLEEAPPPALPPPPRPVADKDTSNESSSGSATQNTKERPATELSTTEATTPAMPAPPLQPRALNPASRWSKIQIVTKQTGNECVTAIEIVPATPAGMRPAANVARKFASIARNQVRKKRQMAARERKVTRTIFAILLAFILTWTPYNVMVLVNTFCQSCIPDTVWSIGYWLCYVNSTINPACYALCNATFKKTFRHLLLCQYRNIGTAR
Procedure: (§1) In order to stabilise the M4 muscarinic receptors in antagonist conformation, a systematic alanine-scan was performed to identify mutations that stabilise receptors bound to the muscarinic antagonist, NMS. […] However, L71A (three residues N-terminal of the L2.46) was identified as a stabilising mutation. This mutation increases the Tm of this receptor by about 2° C. (FIG. 8a).
(§2) A2AR-(2-316) expression was carried out by using the pRG/III-hs-MBP E. coli expression vector and DH5α cells. Cells were grown at 37° C. in 2 L flasks containing 500 mL of 2×TY medium supplemented with Ampicillin (100 μg/mL) and glucose (0.2% w/v). At OD600≈0.7, IPTG and theophylline were added at final concentrations respectively of 0.5 mM and 100 μM, and the temperature was reduced to 20° C. After 22 to 24 hours, cells were harvested in aliquots of 14 mL, centrifuged for 30 min and stored at −20° C. Both 5HT2C and M4 receptors were transiently expressed in HEK293T cells using GeneJuice transfection reagent used according to the manufacturers guidelines.
(§3) Transiently transfected mammalian cells expressing M4 were harvested about 40 hours post transfection and the receptors were solubilised in 50 mM Tris pH 7.5/250 mM NaCl/1% DDM/EDTA free protease inhibitor mix for 1 hour rotating at 4° C. The solubilised lysate was then cleared by centrifugation at 13000 rpm for 15 minutes at 4° C. The solubilised receptors were then purified on Ni-NTA beads and eluted with 100 mM histidine. The eluted receptor was used in radioligand binding assay. Thermostability of M4 was measured using 25 μL of purified receptor mixed with 95 μL of 12 nM [^3H]-NMS (final concentration of 10 nM). The sample was incubated for 60 min at 4° C., then 30 min at the specified temperature and then 30 min at 4° C. Receptor bound and free radioligand were separated using a 96-well plate gel filtration assay.

[2] = tested on: M4 muscarinic receptor; assay: as above; assay type: physicochemical, human; details: bound to antagonist NMS
Procedure: as §1, §2, §3

[3] = target: neurotensin receptor NTS1 (Rattus norvegicus, UniProt P20789, Y369A); assay: Two point thermostability assay, neurotensin agonist binding to NTS1 alanine scan mutants; assay type: physicochemical
From the text: An alanine scan has been carried out on the rat neurotensin receptor NTS1 in the presence of the agonist neurotensin in order to stabilise the agonist conformation.

[4] = tested on: 5HT2C receptor; assay: Thermostability of 5HT2C receptor bound to agonist SCH23390; assay type: physicochemical, human
Procedure: An alanine scan has been carried out on the 5HT2C receptor in the presence of the agonist SCH23390 in order to stabilise the agonist conformation. Similar to A2A, it appears that mutating L2.46 (L95 in 5HT2C) to alanine confers significant stability on this receptor increasing the Tm of the receptor by 5.4° C. (FIG. 7). It is notable that in addition to L95, mutating the nearby M93 (two residues away from L2.46) to alanine also confers stability to the agonist bound receptor, resulting in an increase of 2.9° C.
as §2
(§4) 5HT2C receptor was solubilised from transiently transfected mammalian cells in 50 mM Hepes pH7.4, 100 mM KCl, 0.5% DDM (0.1% CHS/0.6% CHAPS was added to cells for SCH23390 agonist assay). Tm analysis was performed directly on the soluble lysate. The Tm was determined by incubating 108 μl of the lysate with [N^6-methyl-^3H]Mesulergine radioligand at a final concentration of 17 nM or 9 nM [^3H]SCH23390 for one hour at 4° C. The six ligand incubations are then incubated at six different temperatures from 25° C. to 55° C., for thirty minutes. Receptor bound and free radioligand were separated using a 96-well plate gel filtration assay.
5HT2C receptor was solubilised from transiently transfected mammalian cells about 40 hours post transfection, in 50 mM Hepes pH7.4/100 mM KCl/0.5% DDM/(0.1% CHS/0.6% CHAPS was added to cells for SCH23390 agonist assay) and protease inhibitor. Cell lysates were left at 4° C. on a rotator and then cleared by centrifugation at 13,200 rpm for 20 minutes at 4° C. Thermostability analysis was performed directly on the soluble lysate. The Tm was determined by incubating 108 μl of the lysate with [N^6-methyl-^3H]Mesulergine radioligand at a final concentration of 17 nM or 9 nM [^3H]SCH23390 for one hour at 4° C. The six ligand incubations are then incubated at six different temperatures from 25° C. to 55° C., for thirty minutes. Receptor bound and free radioligand were separated using G25 Sephadex spin columns.

[5] = target: T2, 5HT2C receptor (Homo sapiens, UniProt P28335, L95A); assay: Thermostability of 5HT2C receptor bound to antagonist mesulergine; assay type: physicochemical; details: antagonist bound 5HT2C, data not shown
T2 construct: made in house
T2 sequence (P28335 33-458 L95A): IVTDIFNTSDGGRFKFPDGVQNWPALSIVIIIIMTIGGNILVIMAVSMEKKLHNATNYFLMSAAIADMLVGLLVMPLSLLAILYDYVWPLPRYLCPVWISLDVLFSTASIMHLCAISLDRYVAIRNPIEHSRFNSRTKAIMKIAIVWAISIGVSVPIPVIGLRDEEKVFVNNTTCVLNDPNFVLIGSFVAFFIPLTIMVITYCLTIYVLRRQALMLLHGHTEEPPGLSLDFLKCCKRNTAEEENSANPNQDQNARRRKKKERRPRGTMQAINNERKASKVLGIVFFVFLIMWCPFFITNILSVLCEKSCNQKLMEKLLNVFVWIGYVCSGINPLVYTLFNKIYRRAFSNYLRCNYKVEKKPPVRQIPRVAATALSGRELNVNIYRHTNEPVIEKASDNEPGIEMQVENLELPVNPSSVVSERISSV
Procedure: as §2, §4

[6] = tested on: 5HT2C receptor; assay: as above; assay type: physicochemical, human; details: bound to antagonist (mesulergine)
Procedure: as §2, §4

[7] = target: T3, 5HT2C receptor (Homo sapiens, UniProt P28335, S94A); assay: as above; assay type: physicochemical; details: antagonist bound, versus parent 5HT2C
T3 construct: made in house
T3 sequence (P28335 33-458 S94A): T2 sequence (P28335 33-458 L95A) with S62A, A63L
Procedure: as §2, §4

[8] = target: T4, A2A receptor (Homo sapiens, UniProt P29274, N284A); assay: Two point thermostability measurement, NECA binding to A2A alanine scan mutants in DDM; assay type: physicochemical; details: 4° C. versus destabilising temperature such as 30° C.
T4 construct: A2AR-(2-316) expression was carried out by using the pRG/III-hs-MBP E. coli expression vector; MBP (named only in the vector name); made in house
Procedure: In the A2A agonist-bound study the effect of mutations from the alanine scan were determined initially by two point thermostability measurements. In these experiments, the wild type receptors and receptors containing single mutants were solubilised in the detergent DDM and the amount of NECA binding retained at 4° C. and at a destabilising temperature such as 30° C. was determined. A>10% increase in agonist binding to the mutant receptor compared to the wild type receptor at the destabilising temperature is considered to be significant and is indicative of an increase in thermostability.

B1: L71A: M4 muscarinic receptor mutant L71A, three residues N-terminal of the L2.46 (protein, UniProt P08173 1-479, looked up, variant L71A)
Muscarinic acetylcholine …: T1 sequence (P08173 1-479 L71A)
[1]
  increase of Tm: about 2 °C
[2]
  Tm: 36.0 °C

B2: Y369: rat neurotensin receptor NTS1 mutant, residue 7.53 (Y369) to alanine (protein, listed as Rattus norvegicus)
chain: MHLNSSVPQGTPGEPDAQPFSGPQSEMEATFLALSLSNGSGNTSESDTAGPNSDLDVNTDIYSKVLVTAIYLALFVVGTVGNSVTAFTLARKKSLQSLQSTVHYHLGSLALSDLLILLLAMPVELYNFIWVHHPWAFGDAGCRGYYFLRDACTYATALNVASLSVERYLAICHPFKAKTLMSRSRTKKFISAIWLASALLAIPMLFTMGLQNRSGDGTHPGGLVCTPIVDTATVKVVIQVNTFMSFLFPMLVISILNTVIANKLTVMVHQAAEQGRVCTVGTHNGLEHSTFNMTIEPGRVQALRHGVLVLRAVVIAFVVCWLPYHVRRLMFCYISDEQWTTFLFDFYHYFYMLTNALFYVSSAINPILANLVSANFRQVFLSTLACLCPGWRHRRKKRPTFSRKPNSMSSNHAFSTSATRETLY
[3]
  thermostability (agonist binding at the destabilising temperature compared to wild type): increased agonist binding compared to the wild type receptor

B3: L95A: 5HT2C receptor mutant, L2.46 (L95 in 5HT2C) to alanine (protein, UniProt P28335 33-458, looked up, variant L95A)
5-hydroxytryptamine receptor …: T2 sequence (P28335 33-458 L95A)
[4]; agonist SCH23390 bound, versus parent 5HT2C
  increase of Tm: 5.4 °C
[4]; bound to agonist SCH23390
  Tm: 48.8 °C
[5]
  effect on thermal stability: did not confer any stability

B4: S94A: 5HT2C receptor mutant, S94 to alanine (protein, UniProt P28335 33-458, looked up, variant S94A)
5-hydroxytryptamine receptor …: T2 sequence (P28335 33-458 L95A) with S62A, A63L
[6]
  Tm: 48.9 °C
[7]
  increase of Tm: 11.76 °C

B5: N284: adenosine A2A receptor alanine scan mutant of Asparagine 284 (protein, listed as Homo sapiens)
chain: MPIMGSSVYITVELAIAVLAILGNVLVCWAVWLNSNLQNVTNYFVVSLAAADIAVGVLAIPFAITISTGFCAACHGCLFIACFVLVLTQSSIFSLLAIAIDRYIAIRIPLRYNGLVTGTRAKGIIAICWVLSFAIGLTPMLGWNNCGQPKEGKNHSQGCGEGQVACLFEDVVPMNYMVYFNFFACVLVPLLLMLGVYLRIFLAARRQLKQMESQPLPGERARSTLQKEVHAAKSLAIIVGLFALCWLPLHIINCFTFFCPDCSHAPLWLMYLAIVLSHTNSVVAPFIYAYRIREFRQTFRKIIRSHVLRQQEPFKAAGTSARVLAAHGSDGEQVSLRLNGHPPGVWANGSAPHPERRPNGYALGLVSGGSAQESQGNTGLPDVELLSHELKGVCPEPPGLDDPLAQDGAGVS
[8]
  thermostability (agonist binding at the destabilising temperature compared to wild type): increased thermostability
